Reference: PMC12329532, “GAPDH heme delivery to Indoleamine 2,3-dioxygenase 1 involves their complex formation and complementary charge pairing at the protein-protein interface” (The Journal of Biological Chemistry, 2025)

Experiments:
[1] = target: FLAG-tagged IDO1 K101A expressed in HEK293T cells (human, UniProt P14902 1-403, K101A); test: cell-based or functional assay
[2] = target: FLAG-tagged IDO1 K101D expressed in HEK293T cells (human, UniProt P14902 1-403, K101D); test: cell-based or functional assay
[3] = target: T1, N-terminally His6-tagged human IDO1 (indoleamine 2,3-dioxygenase 1), purified apo-IDO1 (human, UniProt P14902 1-403, Alexa Fluor 488 on Cys groups (in the fluorescence polarisation assay only)); test: cross-linking; proteins bound to each other at RT for 30 min, then 100-fold excess of DSSO for 15 min at RT; 50 mM HEPES pH 7.4, 100 mM NaCl; trypsin digest and MS-cleavable XL-MS; conditions: both partners purified
T1 construct: human indoleamine 2,3-dioxygenase 1, cloned in the pHis-parallel1 vector; About 0.1 mol residual heme per mol protein; no effort was made to remove it; also called His6-IDO1; wild-type purified IDO1; source: E. coli BL21 (DE3), purified (Ni-NTA)
T1 sequence (P14902 whole entry): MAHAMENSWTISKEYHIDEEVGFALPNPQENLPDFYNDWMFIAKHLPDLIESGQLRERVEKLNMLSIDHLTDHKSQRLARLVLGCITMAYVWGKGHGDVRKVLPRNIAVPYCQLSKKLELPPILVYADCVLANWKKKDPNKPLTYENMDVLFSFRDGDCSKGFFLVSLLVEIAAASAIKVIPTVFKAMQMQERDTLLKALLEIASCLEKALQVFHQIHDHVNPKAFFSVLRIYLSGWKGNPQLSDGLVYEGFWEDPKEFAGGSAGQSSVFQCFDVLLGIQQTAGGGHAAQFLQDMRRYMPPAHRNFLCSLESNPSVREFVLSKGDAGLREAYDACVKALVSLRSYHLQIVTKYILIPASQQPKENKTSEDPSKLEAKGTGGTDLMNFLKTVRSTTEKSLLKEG

FLAG-tagged IDO1 K101A expressed in HEK293T cells, sequence (P14902 whole entry K101A): as the sequence (P14902 whole entry) above, with K101A counted along it
FLAG-tagged IDO1 K101D expressed in HEK293T cells, sequence (P14902 whole entry K101D): as the sequence (P14902 whole entry) above, with K101D counted along it

B1: GAPDH of HEK293T cells (native) (enzyme)
chain: not shown
Which results are given for B1?
14C heme counts in the IDO1 immunoprecipitates, relative to wild-type IDO1 [1]: 68 % decrease; IDO1 catalytic activity of cell supernatants, relative to wild type [1]: 65 % reduced; L-Kyn buildup in the culture medium over a 5 h period, relative to wild-type IDO1 [1]: ~60 % less; 14C heme counts in the IDO1 immunoprecipitates, relative to wild-type IDO1 [2]: 68 % decrease; IDO1 catalytic activity of cell supernatants, relative to wild type [2]: 65 % reduced; L-Kyn buildup in the culture medium over a 5 h period, relative to wild-type IDO1 [2]: ~60 % less

B2: rabbit GAPDH protein (Sigma #G2267) (enzyme)
chain: not shown
notes: rabbit glyceraldehyde 3-phosphate dehydrogenase; MS data were searched against P46406; The printed cross-linked residues K334 and K215 fit human GAPDH P04406; also called glyceraldehyde 3-phosphate dehydrogenase; source: bought: Sigma #G2267
Does B2 bind [3]?
Result: binds
